Laboratory results as given in patent US20110263454A1, “Methods of Identifying Functional Characteristics of Promoters, Transcription Modifying Proteins and Transcription Modulating Agents” (Salk Institute for Biological Studies, priority 2008, published 2011).

B1: RORg: RAR-related Orphan Receptor γ (NR1F3), cDNA driver (protein, UniProt P51449 1-518, looked up)
Nuclear receptor ROR-gamma: MDRAPQRQHRASRELLAAKKTHTSQIEVIPCKICGDKSSGIHYGVITCEGCKGFFRRSQRCNAAYSCTRQQNCPIDRTSRNRCQHCRLQKCLALGMSRDAVKFGRMSKKQRDSLHAEVQKQLQQRQQQQQEPVVKTPPAGAQGADTLTYTLGLPDGQLPLGSSPDLPEASACPPGLLKASGSGPSYSNNLAKAGLNGASCHLEYSPERGKAEGRESFYSTGSQLTPDRCGLRFEEHRHPGLGELGQGPDSYGSPSFRSTPEAPYASLTEIEHLVQSVCKSYRETCQLRLEDLLRQRSNIFSREEVTGYQRKSMWEMWERCAHHLTEAIQYVVEFAKRLSGFMELCQNDQIVLLKAGAMEVVLVRMCRAYNADNRTVFFEGKYGGMELFRALGCSELISSIFDFSHSLSALHFSEDEIALYTALVLINAHRPGLQEKRKVEQLQYNLELAFHHHLCKTHRQSILAKLPPKGKLRSLCSQHVERLQIFQHLHPIVVQAAFPPLYKELFSTETESPVGLSK
B2: RVRa: Rev-Erb α (NR1D1), cDNA driver (protein, UniProt P20393 1-614, looked up)
Nuclear receptor subfamily 1 …: MTTLDSNNNTGGVITYIGSSGSSPSRTSPESLYSDNSNGSFQSLTQGCPTYFPPSPTGSLTQDPARSFGSIPPSLSDDGSPSSSSSSSSSSSSFYNGSPPGSLQVAMEDSSRVSPSKSTSNITKLNGMVLLCKVCGDVASGFHYGVHACEGCKGFFRRSIQQNIQYKRCLKNENCSIVRINRNRCQQCRFKKCLSVGMSRDAVRFGRIPKREKQRMLAEMQSAMNLANNQLSSQCPLETSPTQHPTPGPMGPSPPPAPVPSPLVGFSQFPQQLTPPRSPSPEPTVEDVISQVARAHREIFTYAHDKLGSSPGNFNANHASGSPPATTPHRWENQGCPPAPNDNNTLAAQRHNEALNGLRQAPSSYPPTWPPGPAHHSCHQSNSNGHRLCPTHVYAAPEGKAPANSPRQGNSKNVLLACPMNMYPHGRSGRTVQEIWEDFSMSFTPAVREVVEFAKHIPGFRDLSQHDQVTLLKAGTFEVLMVRFASLFNVKDQTVMFLSRTTYSLQELGAMGMGDLLSAMFDFSEKLNSLALTEEELGLFTAVVLVSADRSGMENSASVEQLQETLLRALRALVLKNRPLETSRFTKLLLKLPDLRTLNNMHSEKLLSFRVDAQ
B3: RVRb: Rev-Erb β (NR1D2, alternative name RVR), cDNA driver (protein, UniProt Q14995 1-579, looked up)
Nuclear receptor subfamily 1 …: MEVNAGGVIAYISSSSSASSPASCHSEGSENSFQSSSSSVPSSPNSSNSDTNGNPKNGDLANIEGILKNDRIDCSMKTSKSSAPGMTKSHSGVTKFSGMVLLCKVCGDVASGFHYGVHACEGCKGFFRRSIQQNIQYKKCLKNENCSIMRMNRNRCQQCRFKKCLSVGMSRDAVRFGRIPKREKQRMLIEMQSAMKTMMNSQFSGHLQNDTLVEHHEQTALPAQEQLRPKPQLEQENIKSSSPPSSDFAKEEVIGMVTRAHKDTFMYNQEQQENSAESMQPQRGERIPKNMEQYNLNHDHCGNGLSSHFPCSESQQHLNGQFKGRNIMHYPNGHAICIANGHCMNFSNAYTQRVCDRVPIDGFSQNENKNSYLCNTGGRMHLVCPMSKSPYVDPHKSGHEIWEEFSMSFTPAVKEVVEFAKRIPGFRDLSQHDQVNLLKAGTFEVLMVRFASLFDAKERTVTFLSGKKYSVDDLHSMGAGDLLNSMFEFSEKLNALQLSDEEMSLFTAVVLVSADRSGIENVNSVEALQETLIRALRTLIMKNHPNEASIFTKLLLKLPDLRSLNNMHSEELLAFKVHP
B4: RARa: Retinoic acid receptor α (NR1B1), nuclear hormone receptor cDNA driver (protein, UniProt P10276 1-462, looked up)
Retinoic acid receptor alpha: MASNSSSCPTPGGGHLNGYPVPPYAFFFPPMLGGLSPPGALTTLQHQLPVSGYSTPSPATIETQSSSSEEIVPSPPSPPPLPRIYKPCFVCQDKSSGYHYGVSACEGCKGFFRRSIQKNMVYTCHRDKNCIINKVTRNRCQYCRLQKCFEVGMSKESVRNDRNKKKKEVPKPECSESYTLTPEVGELIEKVRKAHQETFPALCQLGKYTTNNSSEQRVSLDIDLWDKFSELSTKCIIKTVEFAKQLPGFTTLTIADQITLLKAACLDILILRICTRYTPEQDTMTFSDGLTLNRTQMHNAGFGPLTDLVFAFANQLLPLEMDDAETGLLSAICLICGDRQDLEQPDRVDMLQEPLLEALKVYVRKRRPSRPHMFPKMLMKITDLRSISAKGAERVITLKMEIPGSMPPLIQEMLENSEGLDTLSGQPGGGGRDGGGLAPPPGSCSPSLSPSSNRSSPATHSP
B5: RARb: Retinoic acid receptor β (NR1B2), nuclear hormone receptor cDNA driver (protein, UniProt P10826 1-455, looked up)
Retinoic acid receptor beta: MTTSGHACPVPAVNGHMTHYPATPYPLLFPPVIGGLSLPPLHGLHGHPPPSGCSTPSPATIETQSTSSEELVPSPPSPLPPPRVYKPCFVCQDKSSGYHYGVSACEGCKGFFRRSIQKNMIYTCHRDKNCVINKVTRNRCQYCRLQKCFEVGMSKESVRNDRNKKKKETSKQECTESYEMTAELDDLTEKIRKAHQETFPSLCQLGKYTTNSSADHRVRLDLGLWDKFSELATKCIIKIVEFAKRLPGFTGLTIADQITLLKAACLDILILRICTRYTPEQDTMTFSDGLTLNRTQMHNAGFGPLTDLVFTFANQLLPLEMDDTETGLLSAICLICGDRQDLEEPTKVDKLQEPLLEALKIYIRKRRPSKPHMFPKILMKITDLRSISAKGAERVITLKMEIPGSMPPLIQEMLENSEGHEPLTPSSSGNTAEHSPSISPSSVENSGVSQSPLVQ
B6: RARg: Retinoic acid receptor γ (NR1B3), nuclear hormone receptor cDNA driver (protein, UniProt P13631 1-454, looked up)
Retinoic acid receptor gamma: MATNKERLFAAGALGPGSGYPGAGFPFAFPGALRGSPPFEMLSPSFRGLGQPDLPKEMASLSVETQSTSSEEMVPSSPSPPPPPRVYKPCFVCNDKSSGYHYGVSSCEGCKGFFRRSIQKNMVYTCHRDKNCIINKVTRNRCQYCRLQKCFEVGMSKEAVRNDRNKKKKEVKEEGSPDSYELSPQLEELITKVSKAHQETFPSLCQLGKYTTNSSADHRVQLDLGLWDKFSELATKCIIKIVEFAKRLPGFTGLSIADQITLLKAACLDILMLRICTRYTPEQDTMTFSDGLTLNRTQMHNAGFGPLTDLVFAFAGQLLPLEMDDTETGLLSAICLICGDRMDLEEPEKVDKLQEPLLEALRLYARRRRPSQPYMFPRMLMKITDLRGISTKGAERAITLKMEIPGPMPPLIREMLENPEMFEDDSSQPGPHPNASSEDEVPGGQGKGGLKSPA

test system: hG6PD promoter; assay: NHR-promoter luciferase screen, hG6PD promoter; format: cell-based, human; details: G6PD promoter reporter; co-transfected HR, without or with its ligand
Protocol: (§1) The use, feasibility, and reproducibility of the functional NHR-promoter screen in a 48-well format have been tested validated. Briefly, there were co-expressed 50 ng of each NHR/NHR homodimer or NHR/RXR heterodimer with 100 ng promoter/luciferase construct and 50 ng of LacZ (as a control for transfection efficiency) in CV-1 cells using Fugene HD (Roche) as a transfection reagent (alternatively or additionally, a CMV-YFP construct can be used as a transfection control). Each of the nuclear hormone receptors that were used in these experiments was cloned into a pcDNA3.1 vector and comprised a C-terminally linked V5H6 tag. Twenty-four hours after transfection, appropriate ligands were added, where applicable, (see Table 5 for various ligands and concentrations and after 48 hrs, samples were assayed for luciferase and LacZ activity. To measure for luciferase activity 15 ul of sample was added to 30 ul of luciferase buffer (20 mM tricine, 1.07 mM MgCarbonate, 2.67 mM MgSulfate, 0.1 mM Naz-EDTA, 5 mM DTT, 5 mM ATP, 0.15 mg/ml CoA, 0.5 mM Luciferin), mixed briefly, and run in a Perkin Elmer Victor 5 luminometer. Thus, the functional NHR-promoter screen was used to observe the transcriptional activity of 29 promoters from various physiological pathways including inflammation, lipid and sugar metabolism, cholesterol transport, xenobiotic metabolism, and circadian rhythm.
(§2) The promoters that facilitate transcription of the indicated gene products that were tested using the protocols described herein are listed in the first row of the table. The nuclear hormone receptors and, where applicable, ligands that were assayed for their transcriptional effects on the promoters are listed in the first column of the table. The data represent the luciferase activity of each sample normalized to both the lacZ activity of that sample and to a control, e.g., no NHR or ligand, as customary in the art. As described previously, these normalizations allow the transcriptional activity of each reporter cell to be compared to other samples.
(§3) Tables 7-40 show the transcriptional effects of the hormone receptors, and, where applicable, ligands (orphan receptors are screened without ligand), on each individual promoter. […] The control data of each table are shown in their last rows.

Row | Molecule | Luc. act., normalized to lacZ
1 | B1 | 81.5
2 | B2 | 45.9
3 | B3 | 55.5
4 | B4 | 57.1
5 | B5 | 56.6
6 | B6 | 58.8

same assay, conditions: G6PD promoter reporter; co-transfected HR, without or with its ligand; relative to control

Row | Molecule | Normalized Luc. act., normalized to control
7 | B1 | 2.2
8 | B2 | 1.2
9 | B3 | 1.5
10 | B4 | 1.5
11 | B5 | 1.5
12 | B6 | 1.6

same assay, conditions: hG6PD promoter-luciferase, CV-1 cells, NHR +/- ligand, control = 1.00

Row | Molecule | luciferase activity normalized to lacZ activity and to a control, hG6PD
13 | B1 | 2.18
14 | B2 | 1.23
15 | B3 | 1.48
16 | B4 | 1.53
17 | B5 | 1.52
18 | B6 | 1.57

test system: mADRP promoter; assay: NHR-promoter luciferase screen, mADRP promoter; format: cell-based, mouse; details: ADRP promoter; HR/ligand component
Protocol: as §1, §2, §3

Row | Molecule | Luc. act., normalized to lacZ | Normalized Luc. act., normalized to control
19 | B1 | 929.8 | 1.9
20 | B2 | 522.2 | 1.0
21 | B3 | 353.2 | 0.7
22 | B4 | 628.8 | 1.3
23 | B5 | 799.4 | 1.6
24 | B6 | 765.4 | 1.5

same assay, conditions: transcription factor +/- ligand; control = 1.00

Row | Molecule | mADRP promoter reporter activity
25 | B1 | 1.87
26 | B2 | 1.05
27 | B3 | 0.71
28 | B4 | 1.26
29 | B5 | 1.61
30 | B6 | 1.54

test system: hIFNg promoter; assay: NHR-promoter luciferase screen, hIFNg promoter; format: cell-based, human; details: IFNg promoter; HR component without or with ligand
Protocol: as §1, §2, §3

Row | Molecule | Luc. act., normalized to lacZ | Normalized Luc. act., normalized to control
31 | B1 | 17.9 | 1.1
32 | B2 | 17.9 | 1.1
33 | B3 | 19.5 | 1.2
34 | B4 | 22.0 | 1.4
35 | B5 | 24.4 | 1.5
36 | B6 | 22.8 | 1.4

same assay, conditions: transcription factor +/- ligand; control = 1.00

Row | Molecule | hIFNg promoter reporter activity
37 | B1 | 1.12
38 | B2 | 1.13
39 | B3 | 1.22
40 | B4 | 1.39
41 | B5 | 1.53
42 | B6 | 1.43
